Several values for one entry are separate records, joined by “and”; a condition that tells them apart may be missing. Equal values may be shown once. Read-outs that look alike come from different tables or passages of the source.
Columns and labels:
Assay in all cases: mass photometry
[1] = biological target: At2-CysPRXA C54S variant (Arabidopsis thaliana)
[2] = biological target: At2-CysPRXA F84R variant (Arabidopsis thaliana)
mass photometry [3] = biological target: the molecule itself
mass photometry [4] = biological target: the molecule itself; remark: listed apart in the source
mass photometry [5] = biological target: the molecule itself; remark: listed apart in the source
mass photometry [6] = biological target: the molecule itself; remark: listed apart in the source
mass photometry [7] = biological target: the molecule itself; remark: listed apart in the source

At2-CysPRXA C54S variant (enzyme)
stoichiometry N [1]: 10

At2-CysPRXA F84R variant (enzyme)
stoichiometry N [2]: 2 and 4

B1: At2-CysPRXA, oxidized (H2O2-treated) (enzyme, Arabidopsis thaliana, UniProt Q96291 66-266, looked up)
chain: KAQADDLPLVGNKAPDFEAEAVFDQEFIKVKLSDYIGKKYVILFFYPLDFTFVCPTEITAFSDRHSEFEKLNTEVLGVSVDSVFSHLAWVQTDRKSGGLGDLNYPLISDVTKSISKSFGVLIHDQGIALRGLFIIDKEGVIQHSTINNLGIGRSVDETMRTLQALQYIQENPDEVCPAGWKPGEKSMKPDPKLSKEYFSAI
modifications: disulfide bond of the peroxidatic cysteine (CysP54) with the resolving cysteine (CysR176)
stoichiometry N (mass photometry [3]): 2

B2: At2-CysPRXA, hyperoxidized (H2O2 plus DTT) (enzyme, Arabidopsis thaliana, UniProt Q96291 66-266, looked up)
chain: KAQADDLPLVGNKAPDFEAEAVFDQEFIKVKLSDYIGKKYVILFFYPLDFTFVCPTEITAFSDRHSEFEKLNTEVLGVSVDSVFSHLAWVQTDRKSGGLGDLNYPLISDVTKSISKSFGVLIHDQGIALRGLFIIDKEGVIQHSTINNLGIGRSVDETMRTLQALQYIQENPDEVCPAGWKPGEKSMKPDPKLSKEYFSAI
modifications: C54 thiol hyperoxidized to a sulfinic acid residue
stoichiometry N (mass photometry [3]): 10

B3: human peroxiredoxin HsPRX1, reduced (enzyme, UniProt Q06830 1-199, looked up)
chain: MSSGNAKIGHPAPNFKATAVMPDGQFKDISLSDYKGKYVVFFFYPLDFTFVCPTEIIAFSDRAEEFKKLNCQVIGASVDSHFCHLAWVNTPKKQGGLGPMNIPLVSDPKRTIAQDYGVLKADEGISFRGLFIIDDKGILRQITVNDLPVGRSVDETLRLVQAFQFTDKHGEVCPAGWKPGSDTIKPDVQKSKEYFSKQK
stoichiometry N (mass photometry [4]): 10

B4: human peroxiredoxin HsPRX2, reduced (enzyme, UniProt P32119 1-198, looked up)
chain: MASGNARIGKPAPDFKATAVVDGAFKEVKLSDYKGKYVVLFFYPLDFTFVCPTEIIAFSNRAEDFRKLGCEVLGVSVDSQFTHLAWINTPRKEGGLGPLNIPLLADVTRRLSEDYGVLKTDEGIAYRGLFIIDGKGVLRQITVNDLPVGRSVDEALRLVQAFQYTDEHGEVCPAGWKPGSDTIKPNVDDSKEYFSKHN
stoichiometry N (mass photometry [4]): 2 | stoichiometry N (mass photometry [5]): 20

B5: human peroxiredoxin HsPRX3, reduced (enzyme, UniProt P30048 62-256, looked up)
chain: APAVTQHAPYFKGTAVVNGEFKDLSLDDFKGKYLVLFFYPLDFTFVCPTEIVAFSDKANEFHDVNCEVVAVSVDSHFSHLAWINTPRKNGGLGHMNIALLSDLTKQISRDYGVLLEGSGLALRGLFIIDPNGVIKHLSVNDLPVGRSVEETLRLVKAFQYVETHGEVCPANWTPDSPTIKPSPAASKEYFQKVNQ
stoichiometry N (mass photometry [4]): 2 | stoichiometry N (mass photometry [5]): 40 and 20

B6: Arabidopsis thaliana 2-Cysteine peroxiredoxin A (At2-CysPRXA), wildtype, reduced (enzyme, UniProt Q96291 66-266, looked up)
chain: KAQADDLPLVGNKAPDFEAEAVFDQEFIKVKLSDYIGKKYVILFFYPLDFTFVCPTEITAFSDRHSEFEKLNTEVLGVSVDSVFSHLAWVQTDRKSGGLGDLNYPLISDVTKSISKSFGVLIHDQGIALRGLFIIDKEGVIQHSTINNLGIGRSVDETMRTLQALQYIQENPDEVCPAGWKPGEKSMKPDPKLSKEYFSAI
ratio of dimer units in the decameric fraction to those in the dimer fraction (mass photometry [6]): ~5 fold | Kd (mass photometry [7]): < 50 nM | stoichiometry N (mass photometry [7]): 20

— publication doi:10.1101/2021.01.30.428949 (bioRxiv, 2021)
